# T1: 人B7H6 (ACRO biosystems, 货号B76-H52H8) (human, UniProt Q68D85 25-262)
# T1 construct: Bought protein coated on the ELISA plate at 2 μg/mL; also called 人B7H6蛋白; B7H6抗原
# T1 sequence (looked up): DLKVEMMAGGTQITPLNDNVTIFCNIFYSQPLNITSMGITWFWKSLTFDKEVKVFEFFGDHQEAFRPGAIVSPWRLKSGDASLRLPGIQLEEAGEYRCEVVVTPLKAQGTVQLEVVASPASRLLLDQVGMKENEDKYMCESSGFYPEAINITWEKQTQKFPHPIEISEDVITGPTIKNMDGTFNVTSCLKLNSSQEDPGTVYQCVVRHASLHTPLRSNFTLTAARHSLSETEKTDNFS
# Experiments:
# [1] = molecular target: T1, 人B7H6 (ACRO biosystems, 货号B76-H52H8); assay: ELISA, human B7H6 coated at 2 μg/mL, HRP rabbit anti-human IgG, OD450
# [2] = molecular target: T2, 人CD16a抗原 (ACRO biosystems, 货号CDA-H5220) (human, UniProt P08637 17-208); assay: ELISA, human CD16a coated at 2 μg/mL, HRP rabbit anti-human IgG, OD450
# T2 construct: Bought protein coated on the ELISA plate at 2 μg/mL; also called 人CD16a蛋白; CD16抗原
# T2 sequence (P08637 17-208 limits assumed): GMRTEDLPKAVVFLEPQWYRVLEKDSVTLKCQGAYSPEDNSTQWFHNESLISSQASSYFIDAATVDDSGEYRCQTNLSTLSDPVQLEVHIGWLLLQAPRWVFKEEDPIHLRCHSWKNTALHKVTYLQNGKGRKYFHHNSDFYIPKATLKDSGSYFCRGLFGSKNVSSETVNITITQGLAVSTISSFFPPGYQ
binder,measurement,setting,value
"CD16×B7H6重组双特异性抗体 (bispecific antibody, human IgG1, L234A L235A, Heterodimer of two scFv-Fc chains (knob-into-hole); Expressed in ExpiCHO-S, purified on protein A; also called NKmab; CD16×B7H6双特异性抗体) chain 1: not shown chain 2: DIVLTQTPLSLSVTPGQPASISCKASQSVDYDGDSYMNWYLQKPGQPPQLLIYAASTLHSGIPDRFSGSGSGTDFTLKISRVEAEDVGVYYCQQSKEDPRTFGQGTKLEIKGGGGSGGGGSGGGGSEVQLVQSGAEVKKPGASVKVSCKASGYTFTDYNMDWVRQAPGQGLEWIGDINPNNGGTLYNQKFRGRVTLTVDTSISTAYMELSRLRSDDTAVYYCARSEVFYGNYADYWGQGTTVTVSSEPKSCDKTHTCPPCPAPEAAGGPSVFLFPPKPKDTLMISRTPEVTCVVVDVSHEDPEVKFNWYVDGVEVHNAKTKPREEQYNSTYRVVSVLTVLHQDWLNGKEYKCKVSNKALPAPIEKTISKAKGQPREPQVCTLPPSRDELTKNQVSLSCAVKGFYPSDIAVEWESNGQPENNYKTTPPVLDSDGSFFLVSKLTVDKSRWQQGNVFSCSVMHEALHNHYTQKSLSLSPGK",binding result,[1],binds
same,binding result,[2],binds

# From CN114395044A (HEFEN TIANKPORT IMMUNOLOGICAL DRUG CO LTD, dated 2022)
